Columns and labels:
Mouse hepatoma H22 cells = assay: Anti-tumor effect in transplanted tumor model; type: in vivo, mice; details: H22 subcutaneous tumor; tumors weighed two weeks after transplantation
Procedure: An animal model of transplanted tumor was used. Mouse hepatoma H22 cells were transplanted subcutaneously into the right axillary region of mice to form solid tumors. After transplantation for 2 days and 7 days, drugs were administered intravenously via the tail vein as a single dose. Two weeks after transplantation, the mice were sacrificed by cervical dislocation, and the tumors were isolated and weighed.

[1] = Pharmacokinetics in tumor-free SD rats (HPLC, non-compartmental model); type: in vivo, Adult SD rats; details: single dose of 25 mg/kg, within 7 days
Procedure: Tumor-free Adult SD rats were administrated a single dose of 25 mg/kg, and four rats were used for each experimental point. The rats were sacrificed at different time points within 7 days, and the concentrations of pegylated irinotecan and its metabolite SN38 were measured and analyzed by HPLC. The analysis of pharmacokinetics was carried out by using a non-compartmental model.

[2] = nude mouse
Source text: The nude mouse model was used to evaluate the maximum tolerated dose of each group. When the body weight of a nude mouse decreased by 20%, the death/survival was monitored and counted.

**Q.** Which results are given for CCOC(=O)CC(CN)(CC(=O)OCC)CC(=O)OCC [Example T8, 8arm-PEG-Gly-IRES]?
**A.** tumor-inhibition ratio, ranking between groups (Mouse hepatoma H22 cells): the highest tumor-inhibition ratio; apparent elimination half-life of the metabolite SN38, ranking between groups [1]: the longest apparent elimination half-life; maximum tolerated dose, ranking between groups [2]: the lowest

From US10660969B2, “Eight-arm polyethylene glycol derivative, production method therefor, and modified bio-related substance thereof” (priority 2015, dated 2020)
